According to the DeepSol protein solubility set:

Assay: soluble on expression in E. coli; label from the status in PepcDB or PDB records
With “MAKNAPRFVCQACGAVYPRWMGRCEACGEWNSIAEEAPAEALPKGQTGGRGGQRLSFVSLEGVGAPPPRLLTGIPELDRVAGGGLVAGSALLIGGDPGIGKSTLLLQAVAGLARGGARSVYISGEEAIDQVRLRALRLGLEKAPVDLAAATSVRDIVATLDSGEPPDVVVIDSIQTMYLDTLDSAPGTVAQVRAGSHELIRLAKRRGFVLFLVGHVTKEGQMAGPRVMEHMVDAVIYFEGERGHPFRILRAVKNRFGATDEIGVFEMSDAGLSEVPNPSALFLAERRGNVTGSCVFAGMEGTRPMLVEIQALVGPSAPGSARRAVVGWDGGRLAMVMAVLETRCGLALGGNDVYLNVAGGLRIGEPAADLAVAAALVSSFSGVPVPPDMVVFGEIGLSGEIRAVAHGDTRLKEAAKLGFDQALMPARPRDSGKRGGPGVKEGLRMREIGHLQDLVALLAPPENAGQGQRLEHHHHHH” the “soluble on expression in E. coli” value was “soluble”. In the case of “NKSDMNHFMQVLRYLDPIHYLKATNDNGFPMSRMYSNQTVTIGGTITQPLPFKPDGENNVKLQRVVAKLDVNIVEGVENLQKIELCNANVHYRLVPNQSEPIQFYGPVELRRVGTTNQWLGYMPEAIVESTKWWGNTGNAENKPINFFRLTTRGGLVYDVPIITHEGAIPGGQYLPFAKGLLADKPSYTVYRNRHYIYRIKTLPDKIEVKYSICDWNIVTNDTYMGYGYNVGVDEQGNVTITNTMQNCDPHVVRLVAKNGAYFGSQPTDTSVEFAELANGASQTFKVNKDAVAVGSAYLEVYYNPDPNATGVVPDKVFIKK”, the “soluble on expression in E. coli” value is reported as “not soluble”. In the case of “MAHHHHHHMLRITPSRYASKVTAGNAKNQAGSPRQKAKLFHVIPGTPVTPVEKLKEQRRRFGQDRYSRQPEYRPGRNVRMDPNTFTLYATTKGVMTIRTSRINPSYKWLDVEPDIQKVYRSRCMRAALQARGKASMMVAGNVHYRAELDHVTEPHWRERVMRVPKATERFQDPNYFTRGLVPSLRPLSRYSYE”, the “soluble on expression in E. coli” value is reported as “soluble”. In the case of “GSHMDYNKRSSVSTVPNAAPIRVGFVGLNAAKGWAIKTHYPAILQLSSQFQITALYSPKIETSIATIQRLKLSNATAFPTLESFASSSTIDMIVIAIQVASHYEVVMPLLEFSKNNPNLKYLFVEWALACSLDQAESIYKAAAERGVQTIISLQGRKSPYILRAKELISQGYIGDINSIEIAGNGGWYGYERPVKSPKYIYEIGNGVDLVTTTFGHTIDILQYMTSSYFSRINAMVFNNIPEQELIDERGNRLGQRVPKTVPDHLLFQGTLLNGNVPVSCSFKGGKPTKKFTKNLVIDIHGTKGDLKLEGDAGFAEISNLVLYYSGTRANDFPLANGQQAPLDPGYDAGKEIMKVYHLRNYNAIVGNIHRLYQSISDFHFNTKKIPELPSQFVMQGFDFEGFPTLMDALILHRLIESVYKSNMMGSTLNVSNISHYSL”, the “soluble on expression in E. coli” value is reported as “soluble”. With “GMSVAAEVAQVAQSAIDDFNAAYGLCLDDDRLEQWPTLFVDDCLYQVIARENVDNGLPAAVMYCDSKGMLADRVVALRKANVFPEHFNRHLIGRAVITGVEGDQVSAEASYVVFQTRNDGETRIYNAGKYVDRFDLSGGTVRLKSRTCIYDTLRIATLLATPI” the “soluble on expression in E. coli” value was “soluble”. In the case of “QPALPEAMYQLLSGAHYRTSPLDLRRMMDAPGQAFRCARTGGAVAGALWLVAEGGLSPELSRAVWAGFRRPRGNLVAQSLAAHGGSPLAATLRGLRVSRIAVHPTRQREGLGRKMIADIAADAAGYDYLSVSFGYTAELWRFWQRCG”, the “soluble on expression in E. coli” value is reported as “not soluble”. For “SLYRIVLGKVSTLSAAPLPPGLREQAPQGPRRERWLAGRALLSHTLSPLPEIIYGEQGKPAFAPETPLWFNLSHSGDDIALLLSDEGEVGCDIEVIRPRANWRWLANAVFSLGEHAEMDAVHPDQQLEMFWRIWTRKEAIVKQRGGSAWQIVSVDSTYHSSLSVSHCQLENLSLAICTPTPFTLTADSVQWIDSVN”, the “soluble on expression in E. coli” value was “not soluble”. With “GMAINIIEYNRSYKEELIEFILSIQKNEFNIKIDRDDQPDLENIEHNYLNSGGQFWLAINNHQNIVGTIGLIRLDNNMSALKKMFVDKGYRNLKIGKKLLDKVIMTCKEQNIDGIYLGTIDKFISAQYFYSNNGFREIKRGDLPSSFPKLDVDNRFYYRNLKD” the “soluble on expression in E. coli” value was “soluble”. In the case of “MDSGINNISRFRIDHSFHKLHYAMHSAHSHTYYELFYMMHGNCTISIDNRLFTLSEGNIIFIPANSVHRTSYIGELVPERTYIEFSKDYIETISQTLGKNWAEHNLWGHILYIEKEKREKIDFLFREIQKEYDIVDGYSDCCIRQLFQYLIINLIRLDRNTKDIKEFITNSDNKINQNMIIAAKYIAENFKNDITLKDVASHLNLNPSYFSSKFKAFNNIGFAEYLRNIRVNHAEWYLIETDLSLSDIASECGFCNSNYFGDTFKLVNGISPSEFRKNNKPKKAEN”, the “soluble on expression in E. coli” value is reported as “not soluble”. In the case of “MPAIVLIGAQWGDEGKGKATDLLGGRVQWVVRYQGGNNAGHTVVLPTGENFALHLIPSGVLTPGVTNVIGNGVVIDPGVLLNELRGLQDRGVDTAKLLISADAHLLMPYHIAIDKVTERYMGSKKIGTTGRGIGPCYQDKIARIGIRVADVLDPEQLTHKVEAACEFKNQVLVKIYNRKALDPAQVVDALLEQAEGFKHRIADTRLLLNAALEAGETVLLEGSQGTLLDVDHGTYPYVTSSNPTAGGAAVGSGIGPTRIGTVLGILKAYTTRVGSGPFPTELFDEHGEYLSKTGREFGVTTGRRRRCGWFDAVIARYAARVNGITDYFLTKLDVLSSLESVPVCVGYEIDGRRTRDMPMTQRDLCRAKPVYEELPGWWEDISGAREFDDLPAKARDYVLRLEQLAGAPVSCIGVGPGREQTIVRRDVLQDRP”, the “soluble on expression in E. coli” value is reported as “not soluble”. For “MKKTKVHLISGFLGTGKTTALKSLMAQKDPNEKWVIIVNEFGEIGIDGAVLSDNGIPVAEIAGGCLCCTAGPQMGVTVQKMLRDAKPDRLMIEASGLAHAASVIDELKTKPLDSLLEIGAVFTVVDPRQFINPDYAQQALYKDQIGICDVLVASKTDLCTPEQLAEFHDKAAKLFPPKAKVVEVQNAQLDIQWLDIPVIEKSRYRLKALPDNTMGFQSQGFTFPAGRDFDGEKLTNFFNDLPNMTEGLVRAKGVFQVLGTWVWLNWVDGQWGANQVSWRRDSRFELIAKSFDADLIEQKLKDALELEHHHHHH”, the “soluble on expression in E. coli” value was “not soluble”. For “MRGFLKFAILAAVLLALAYGDDEDEEASELERRRIRNCPEVTFKRMTGCVWEFGRFLKKVLFLDLEQRTLDRFRKSCLSMAECFDLIECKETGKFSRGKRIKDSCDVMNYLSKDFVPCLKRLERLDPAPTCFNKWKPFSDLNEVGPDTTPEEMEELCKNMLGKDNCMKDLVSRTCGGVMSQELVDRFEATSVFKQCDAD”, the “soluble on expression in E. coli” value was “not soluble”. For “MGSDKIHHHHHHAEEKNLSEQWPVVASYQWAGQDSVVVCDLSLLKDTVDLPFSFFLKDFQIIKLDNRDEAMVGENNLCVSENYILVYGSVYELHPCRLFTKKGEFVTNIGAIGQGPGEYRAVYKAEIDEKHNCIYLMPFANSNAIYVYDLAGKPLRSIPLHQPVSKAVFKVDADKRELTVGALPFTGYPFVAWVQDFEGHLLDSVPAARHLSVLPDYSNEVMYGANTEVFDLYISTFFELRPDTLYHYIRSESRLKPRFTLNIGDRKRSITTFYELPQAYVGRLMVEEQVGDGMWETKSPSNFIVDKASLRGTFFRVINDFAGGMPDRLWTPWSLRNKQYIRLVEPGVLKAEIESYLSSTDGRKGKNRKKLQELCESIGEEDNSYVIYAKQKGVQ”, the “soluble on expression in E. coli” value was “not soluble”. With “MSLPDATVVKAFLLDLQHRICAGLEQLDGQASFAADSWTRAEGGGGTSRVLTQGAVFEQAGVNFSHVTGAAMPASATAHRPELAGRSFEAMGVSLVIHPKNPYIPTTHANVRFFIAHKDGAEPVWWFGGGFDLTPYYPFEEDVREWHQSAKNLCQPFGDDVYPKYKKWCDEYFFLPHRNETRGVGGLFFDDLNQAGFDKSFDFMQAVGNGFLTAYAPIVERRKDTDYGERERDFQLYRRGRYVEFNLVYDRGTLFGLQTGGRTESILMSMPPLVRWQYAYTPAAGSPEADLYDNYLKPRDWVLEHHHHHH” the “soluble on expression in E. coli” value was “not soluble”. For “MAHHHHHHMQVTETVLARAVIKRRSPQLWGAPGAPIIRMRGHHVVWKFQSYDLVVEHTHKRRNSDIRLLHYLGKHCPHPQKSLWSPDTPVAQDRHLFMLTTVDIDAFKYWFGVKRCRLSMKPWALLAKAGLLPPSLTQNSKIMPKPLFDKESLMRYYLANRKDEDVMAREKYLNYENSMVKTEEERAAERPVAPYL”, the “soluble on expression in E. coli” value was “soluble”. In the case of “MSTVQVPKLNTKDLLTLEELTQEEIISLIEFAIYLKKNKQEPLLQGKILGLIFDKHSTRTRVSFEAGMVQLGGHGMFLNGKEMQMGRGETVSDTAKVLSHYIDGIMIRTFSHADVEELAKESSIPVINGLTDDHHPCQALADLMTIYEETNTFKGIKLAYVGDGNNVCHSLLLASAKVGMHMTVATPVGYKPNEEIVKKALAIAKETGAEIEILHNPELAVNEADFIYTDVWMSMGQEGEEEKYTLFQPYQINKELVKHAKQTYHFLHCLPAHREEEVTGEIIDGPQSIVFEQAGNRLHAQKALLVSLFKNVEELS”, the “soluble on expression in E. coli” value is reported as “not soluble”. For “MKEKISEKEYKALIRKTGKEHFDGEKEEYGDGTVGVWTYELRKYKLKPPVKVKYVTQEQFQEYKDSNNQRLIKIENKVDKLVEIVQIHGEQIKAQGETLQLILQTLQKMSDRLDKMEKRIDKLESK”, the “soluble on expression in E. coli” value was “soluble”. For “HETENAWRETEERLAATYQAATIGIAESDADGRLLRVNDAFCTMLGRSREQLLNMTFLDYTHEDDRDEEARCYARQVSGETDTYAIRKRAVKADGTVIYLDVYSSTVRDRTGRFRYGVRVLLDVT”, the “soluble on expression in E. coli” value was “not soluble”. With “MSISSDWIVPDWPAPPSVRALSTTRQGGVSTGPYGLAGGLPGGLNLGRHVGDGPDAVTQNRRLLRAVLPAEPAWMEQVHGTVVADLDQPLPAPVVADAAIAASPGRVCVVMTADCLPVLLCDARGVTVGAAHAGWRGLCSGVIEQTVERMTDALRACGQEADPTWLAWLGPAIGPDCFEVGAEVRQAFIDAARPDELPATRAAFAEGAADGKFLADLYALARLRLARAGCRDVHGGGLCTMTDAERFYSYRRDRTTGRMATLIWRAA” the “soluble on expression in E. coli” value was “soluble”. In the case of “MAGWRTVVVNTHSKLSYKNNHLIFKDAYKTELIHLSEIDILLLETTDIVLSTMLVKRLVDENVLVIFCDDKRLPTAMLMPFYGRHDSSLQLGKQMSWSETVKSQVWTTIIAQKILNQSCYLGACSYFEKSQSIMDLYHGLENFDPSNREGHAARIYFNTLFGNDFSRDLEHPINAGLDYGYTLLLSMFAREVVVSGCMTQFGLKHANQFNQFNFASDIMEPFRPLVDKIVYENRNQPFPKIKRELFTLFSDTFSYNGKEMYLTNIISDYTKKVVKALNNEGKGVPEFRI”, the “soluble on expression in E. coli” value is reported as “not soluble”. In the case of “SLDGELDTQPLIEQLWQAGKRVYLPVLHPFSPGNLLFLHYHPQSALVTNRLNIREPRLDVRDVLPLAKLDVLVTPLVAFDEGGQRLGMGGGFYDRTLQNWQQHKILPVGYAHDCQLVEKLPVEEWDIPLPAVVTPSKIWEW”, the “soluble on expression in E. coli” value is reported as “soluble”. With “MILHGFHLSTSSHCLPFIFRHLFIFHSITALCDHMLSKFVVVEVSNSNNTMTLVEYLVTHGFDKFAVVTDLVDHPSFKYKDGSSSPESPSTTASTAAQHTPPRTAVSTPTSINTPVPPHQNKQRHSIDKIAANLSTKKVSPSSIEKQLQRTSHNPLHQLSTPHALSQLQKLLEEQHKINQMNIQKKEQERQQAEIQRILLQQANAAQINHSFGLERLTPEYDDNHHSETISKASSEDLKTEPDSTDFGLGTSDDQVRASMLHLLHPVFAPAFGMLDAENIFGAASKPTTPASKRRNTDSNGAPSKKHRWLPVNELEESRSSRGKNCGRVHCKATYKCALCGKPTTLNSTGSRWNLLRHVIMIHSDCKPYKCWDCDFTGIKSNVISHARQCRHNAEDAHDITTDEMRAEWNLRLHECFPDYVRAKERGWQPEEVTVKKEEVEESPTLVKQELTLVKQEPTFAEQLEPMAQPLV” the “soluble on expression in E. coli” value was “not soluble”. In the case of “MKVLVSPMSVAEAIEAIEGGADIIDVKNPAEGSLGANFPWVIREISELAKKYGKEISATTGDMPYKPGTASLAALGAAVAGADYIKVGLYGVKNAEEAYEMMVGVVRAVKDFDSSKKVVAAGYGDYYRISSVSPLDLPEAVAKAGADIVMVDTAIKDGTSLFDHMKIGDIESFVKLARDNGLMVALAGNISWNHIETLKELSPDIIGVRSIVCEGDRSSMIKRELVVKLMEAVHG”, the “soluble on expression in E. coli” value is reported as “not soluble”.
